Series [1] concerns VWF-034 (VWF D′D3-288XTEN-LVPR-Fc fusion construct).
The test system of series [2] is VWF-055 (VWF D′D3-Fc fusion construct; 34 aa VWF linker comprising an a2 region from FVIII).
Sequence of VWF-055 (VWF D′D3-Fc fusion construct; 34 aa VWF linker comprising an a2 region from FVIII) (chain, as listed by the source): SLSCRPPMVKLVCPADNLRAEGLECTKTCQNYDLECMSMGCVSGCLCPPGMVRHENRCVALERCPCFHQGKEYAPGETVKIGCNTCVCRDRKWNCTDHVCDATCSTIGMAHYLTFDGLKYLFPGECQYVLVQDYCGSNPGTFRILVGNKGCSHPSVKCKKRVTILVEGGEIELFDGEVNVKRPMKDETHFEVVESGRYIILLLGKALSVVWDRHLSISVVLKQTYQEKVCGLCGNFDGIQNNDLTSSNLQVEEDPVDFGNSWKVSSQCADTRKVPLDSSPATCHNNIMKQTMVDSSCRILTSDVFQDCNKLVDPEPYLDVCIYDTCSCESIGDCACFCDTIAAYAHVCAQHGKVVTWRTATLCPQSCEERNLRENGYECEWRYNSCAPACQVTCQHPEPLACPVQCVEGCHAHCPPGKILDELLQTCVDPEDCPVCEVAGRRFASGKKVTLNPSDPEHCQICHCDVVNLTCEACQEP

Sequence of VWF-034 (VWF D′D3-288XTEN-LVPR-Fc fusion construct) (chain, as listed by the source): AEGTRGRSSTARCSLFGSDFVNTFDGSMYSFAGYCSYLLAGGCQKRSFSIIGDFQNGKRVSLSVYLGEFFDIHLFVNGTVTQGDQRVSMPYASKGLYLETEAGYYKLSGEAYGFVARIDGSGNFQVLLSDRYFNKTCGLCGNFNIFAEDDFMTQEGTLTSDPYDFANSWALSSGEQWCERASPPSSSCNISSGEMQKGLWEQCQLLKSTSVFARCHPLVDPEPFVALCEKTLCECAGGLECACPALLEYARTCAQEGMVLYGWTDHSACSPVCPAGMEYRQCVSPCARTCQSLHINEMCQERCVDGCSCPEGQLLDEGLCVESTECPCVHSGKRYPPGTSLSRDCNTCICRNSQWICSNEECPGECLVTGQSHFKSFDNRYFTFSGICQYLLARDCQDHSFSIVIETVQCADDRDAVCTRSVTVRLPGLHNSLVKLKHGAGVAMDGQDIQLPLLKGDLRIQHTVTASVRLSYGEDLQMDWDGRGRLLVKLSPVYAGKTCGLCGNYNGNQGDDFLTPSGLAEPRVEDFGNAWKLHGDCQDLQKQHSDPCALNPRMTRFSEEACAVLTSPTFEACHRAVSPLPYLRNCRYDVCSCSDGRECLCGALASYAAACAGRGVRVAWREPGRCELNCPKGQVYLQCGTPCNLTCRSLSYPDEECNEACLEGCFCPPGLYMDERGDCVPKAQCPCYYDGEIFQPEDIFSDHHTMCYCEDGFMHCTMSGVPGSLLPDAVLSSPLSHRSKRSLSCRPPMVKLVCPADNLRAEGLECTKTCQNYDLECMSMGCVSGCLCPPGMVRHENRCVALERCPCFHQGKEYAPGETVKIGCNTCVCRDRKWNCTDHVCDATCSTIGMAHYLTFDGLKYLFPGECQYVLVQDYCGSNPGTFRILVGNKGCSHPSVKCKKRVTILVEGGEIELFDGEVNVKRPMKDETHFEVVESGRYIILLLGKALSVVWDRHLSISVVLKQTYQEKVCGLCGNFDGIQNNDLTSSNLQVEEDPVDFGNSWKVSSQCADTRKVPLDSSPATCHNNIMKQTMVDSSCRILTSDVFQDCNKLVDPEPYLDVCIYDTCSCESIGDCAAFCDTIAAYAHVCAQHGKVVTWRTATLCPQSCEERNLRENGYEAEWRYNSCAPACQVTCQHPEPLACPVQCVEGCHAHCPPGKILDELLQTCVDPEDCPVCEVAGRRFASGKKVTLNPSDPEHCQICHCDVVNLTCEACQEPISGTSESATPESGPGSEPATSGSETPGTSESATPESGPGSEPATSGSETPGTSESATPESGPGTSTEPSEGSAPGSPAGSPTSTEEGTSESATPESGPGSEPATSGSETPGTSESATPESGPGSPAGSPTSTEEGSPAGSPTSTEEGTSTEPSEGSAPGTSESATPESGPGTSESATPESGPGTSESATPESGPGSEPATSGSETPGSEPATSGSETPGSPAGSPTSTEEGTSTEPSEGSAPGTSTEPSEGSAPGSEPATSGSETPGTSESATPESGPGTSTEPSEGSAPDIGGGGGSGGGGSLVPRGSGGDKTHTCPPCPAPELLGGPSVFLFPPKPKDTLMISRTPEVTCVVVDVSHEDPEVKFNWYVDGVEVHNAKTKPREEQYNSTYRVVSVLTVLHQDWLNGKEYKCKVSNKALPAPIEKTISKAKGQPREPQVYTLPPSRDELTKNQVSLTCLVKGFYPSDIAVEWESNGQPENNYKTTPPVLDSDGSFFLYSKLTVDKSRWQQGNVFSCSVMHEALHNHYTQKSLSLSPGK

Take human alpha-thrombin: the “thrombin cleavage rate relative to VWF-031 (Biacore)” value in series [1] is reported as “displayed slower cleavage compared to VWF-031”. In addition, in series [2], the “thrombin cleavage relative to VWF-039 (Biacore)” value was “displayed similar thrombin cleavage as VWF-039 construct”.

For the origin of these results see patent publication US20160251408.
